Test system: Bacillus subtilis DB104 (SP-AmyQ fusion secretion)
Assay: AmyQ secretion efficiency, weighted average sort bin (1 = best secretion, 10 = worst) (bin number (weighted average, 1-10)); higher = lower secretion efficiency
Summary of the method: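 B. subtilis DB104 library expressing mature AmyQ fused to designed signal peptides (amyE-integrated) was encapsulated at about 0.3 cells per ~65 nL alginate bead with fluorescein-starch, grown about 13 h at room temperature and nile red stained. Occupied beads were sorted by large-particle flow cytometry into 10 equally populated bins by green/red fluorescence ratio, and each bin's amplicons were Illumina-sequenced. Secretion score is the read-frequency-weighted average bin number, normalised to beads per bin, excluding low-abundance sequences.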

Sequence | AmyQ secretion efficiency
MMKKLFHSTLIVLLFFSFFGVQPCHAKKQ | 1.69
MRKYTVIASILLSFLSVLFIVVVTSKAFPV | 5.84
MAIIIAIIAAVIVIAALITFNVHNASPG | 7.6
MLKKIALTLCPAIVGSLLFFTAIASAHVS | 3.46
MKSKGSIMACLILFSFTITRKKRKKTISAFSN | 7.38
MTTTAWFLPLVCVLLISGWLAPAASASAQTT | 2.09
MKRKRSIMACLILFSFTITTFINTETISAFSN | 3.86
MKKRLIAPMLLSAASLAFFAMSGSTQAAAY | 3.66
MKRLCLWFTVFSPGKALGAVD | 7.52
MKKRLIAPMLLSAASLAFFAMSGSAQKAAY | 6.67
MKKTIMSFFFVAVAALSTTAFGAHASAKEI | 2.53
MKRLLSTLLIGIMLLTFAPSPAATVFPVAFAKQD | 1.66
MKQGKFSVFLILLLMLTLVVAPKEKEEAASS | 7.98
MSGTCSIVCLWILVLLLSCLSGKSAYAATS | 3.6
MNKKYSSKQGCRIFTSALFPTFSSVTAAQG | 4.96

Reference: the supplement of paper PMC9942255
